# Assay results reported in patent US12325865B2, “Methods for increasing efficiency of gene editing in cells” (President and Fellows of Harvard College, priority 2017, dated 2025).
# B1: SV40 large T antigen: SV40 large T antigen, treatment also increasing targeting efficiency (protein, UniProt P03070 1-708, looked up)
# Large T antigen: MDKVLNREESLQLMDLLGLERSAWGNIPLMRKAYLKKCKEFHPDKGGDEEKMKKMNTLYKKMEDGVKYAHQPDFGGFWDATEIPTYGTDEWEQWWNAFNEENLFCSEEMPSSDDEATADSQHSTPPKKKRKVEDPKDFPSELLSFLSHAVFSNRTLACFAIYTTKEKAALLYKKIMEKYSVTFISRHNSYNHNILFFLTPHRHRVSAINNYAQKLCTFSFLICKGVNKEYLMYSALTRDPFSVIEESLPGGLKEHDFNPEEAEETKQVSWKLVTEYAMETKCDDVLLLLGMYLEFQYSFEMCLKCIKKEQPSHYKYHEKHYANAAIFADSKNQKTICQQAVDTVLAKKRVDSLQLTREQMLTNRFNDLLDRMDIMFGSTGSADIEEWMAGVAWLHCLLPKMDSVVYDFLKCMVYNIPKKRYWLFKGPIDSGKTTLAAALLELCGGKALNVNLPLDRLNFELGVAIDQFLVVFEDVKGTGGESRDLPSGQGINNLDNLRDYLDGSVKVNLEKKHLNKRTQIFPPGIVTMNEYSVPKTLQARFVKQIDFRPKDYLKHCLERSEFLLEKRIIQSGIALLLMLIWYRPVAEFAQSIQSRIVEWKERLDKEFSLSVYQKMKFNVAMGIGVLDWLRNSDDDDEDSQENADKNEDGGEKNMEDSGHETGIDSQSQGSFQAPQSSQSVHDHNQPYHICRGFTCFKKPPTPPPEPET
# System: PFFF3 cells
# Experiment: Treatment of Cas9/gRNA-modified PFFF3 cells during multiplex PERV pol genetic modification
# Type: cell-based, porcine
# Settings: FIG. 2
# Description: Stable expression of Cas9 and the three sgRNAs was achieved by integrating a piggyBac transposon carrying these elements into the PFFF3 genome. The PFFF3 cell line was established expressing a Piggybac-Cas9/3gRNAs construct. Cas9 and […] were carried in the same vector. Cas9 expression was induced by addition of doxycycline.
# Methods described herein where cells are treated with PFTα and/or bFGF mitigate the stress from multiplex DNA damage and support clonal expansion of 100% PERV-free cells. Such DNA damage decreases targeting efficiency of the PFFF3 population over time and results in the inability to obtain 100% PERV-free PFFF3 clonal cell lines. Methods described herein are directed to inhibiting senescence and/or apoptosis pathways with small-molecule drugs so as to increase the targeting efficiency of the PFFF3 population and enhance viability of the highly edited clones. […] (See FIG. 1). […] (See FIG. 2). […] The distribution of the targeting efficiencies of single cell clones treated with PFTα and bFGF was approximately bimodal, and 100% PERV-free PFFF3 clonal cell lines were isolated. The eradication of pol activity was validated by RNA-seq with confirmation that all pol transcripts had been mutated.
molecule,measurement,value
B1,average targeting efficiency of the resulting PFFF3 population,increased average targeting efficiency
